B1: E3 ubiquitin-protein ligase LRSAM1 (Homo sapiens), Q6UWE0 (parent)
chain: MPLFFRKRKPSEEARKRLEYQMCLAKEAGADDILDISKCELSEIPFGAFATCKVLQKKVLIVHTNHLTSLLPKSCSLLSLATIKVLDLHDNQLTALPDDLGQLTALQVLNVERNQLMQLPRSIGNLTQLQTLNVKDNKLKELPDTVGELRSLRTLNISGNEIQRLPQMLAHVRTLEMLSLDASAMVYPPREVCGAGTAAILQFLCKESGLEYYPPSQYLLPILEQDGIENSRDSPDGPTDRFSREELEWQNRFSDYEKRKEQKMLEKLEFERRLELGQREHTQLLQQSSSQKDEILQTVKEEQSRLEQGLSEHQRHLNAERQRLQEQLKQTEQNISSRIQKLLQDNQRQKKSSEILKSLENERIRMEQLMSITQEETESLRRRDVASAMQQMLTESCKNRLIQMAYESQRQNLVQQACSSMAEMDERFQQILSWQQMDQNKAISQILQESAMQKAAFEALQVKKDLMHRQIRSQIKLIETELLQLTQLELKRKSLDTESLQEMISEQRWALSSLLQQLLKEKQQREEELREILTELEAKSETRQENYWLIQYQRLLNQKPLSLKLQEEGMERQLVALLEELSAEHYLPIFAHHRLSLDLLSQMSPGDLAKVGVSEAGLQHEILRRVQELLDAARIQPELKPPMGEVVTPTAPQEPPESVRPSAPPAELEVQASECVVCLEREAQMIFLNCGHVCCCQQCCQPLRTCPLCRQDIAQRLRIYHSS

Variants of: B1
Conditions: with G3BP1, Q13283
Chain of G3BP1, Q13283 (Q13283 whole entry, looked up): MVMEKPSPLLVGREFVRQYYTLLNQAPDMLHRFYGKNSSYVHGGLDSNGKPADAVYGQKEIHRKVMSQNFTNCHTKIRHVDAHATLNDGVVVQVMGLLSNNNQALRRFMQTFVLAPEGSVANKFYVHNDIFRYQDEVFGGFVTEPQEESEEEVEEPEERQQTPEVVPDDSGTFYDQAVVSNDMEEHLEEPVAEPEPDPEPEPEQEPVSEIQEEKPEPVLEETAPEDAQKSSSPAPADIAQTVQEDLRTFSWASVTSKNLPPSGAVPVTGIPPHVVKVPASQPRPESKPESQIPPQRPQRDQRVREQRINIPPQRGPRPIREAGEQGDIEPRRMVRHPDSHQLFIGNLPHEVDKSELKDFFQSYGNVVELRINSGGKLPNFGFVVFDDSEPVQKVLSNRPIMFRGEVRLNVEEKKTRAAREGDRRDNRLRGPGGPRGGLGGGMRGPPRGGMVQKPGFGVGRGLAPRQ

Variant	effect of a mutation on the interaction
C694R	disrupting interaction strength

Variants of: B1
Conditions: with fus_mouse Fus

Variant	effect of a mutation on the interaction
C694R	disrupting interaction strength

From IntAct's records for PubMed 27615052
